Measurements reported in US20210246166A1 (Bayer, published 2021).
Numbered stars: 1 amine (or outer) side, 2 acyl side, 3 side chain; on linkers, the order of the positions; unused ones are H or OH. Bridge positions count the residues as written; N and C are the ends. Square brackets hold non-standard residues; d marks the D form. Ends that are not written are not given here. X13 = (2S)‑2‑amino‑3‑(1-methylcyclopropyl)propanoic acid, CC1(C[C@H](N[*:1])C(=O)[*:2])CC1; Pro(cis-4-CF3) = O=C(O)[C@@H]1C[C@H](C(F)(F)F)CN1; Oic = O=C(O)[C@@H]1C[C@@H]2CCCC[C@@H]2N1; PEG8 = NCCOCCOCCOCCOCCOCCOCCOCCOCCC(=O)O; PEG7 = NCCOCCOCCOCCOCCOCCOCCOCCC(=O)O; tBuAla = CC(C)(C)C[C@H](N)C(=O)O; PEG4 = NCCOCCOCCOCCOCCC(=O)O; Pen = CC(C)(S)[C@H](N)C(=O)O; Tranexamic = tranexamic acid; 4Amb = NCc1ccc(C(=O)O)cc1; NMeC = CN[C@@H](CS)C(=O)O; Sar = CNCC(=O)O

T1: recombinant rat MASP1 active protease (amino acids 302-704, C-terminal His Tag) (rat, UniProt Q8CHN8 302-704)
T1 sequence: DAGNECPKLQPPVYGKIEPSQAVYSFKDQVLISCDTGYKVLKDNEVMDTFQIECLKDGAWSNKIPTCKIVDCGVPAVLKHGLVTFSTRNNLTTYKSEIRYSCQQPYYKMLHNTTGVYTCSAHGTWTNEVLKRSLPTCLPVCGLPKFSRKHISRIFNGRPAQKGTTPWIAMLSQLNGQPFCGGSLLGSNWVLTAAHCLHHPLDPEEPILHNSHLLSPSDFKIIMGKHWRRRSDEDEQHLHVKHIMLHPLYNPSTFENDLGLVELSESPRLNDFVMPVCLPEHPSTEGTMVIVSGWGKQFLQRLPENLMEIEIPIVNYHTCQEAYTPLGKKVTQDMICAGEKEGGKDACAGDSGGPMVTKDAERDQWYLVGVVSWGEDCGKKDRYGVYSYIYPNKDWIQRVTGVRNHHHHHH


Tests used:
[1] = target: T1, recombinant rat MASP1 active protease …; assay: cell-based or functional assay
[2] = target: recombinant rat MASP2 active protease (amino acids 296-685, C-terminal His Tag) (rat, UniProt Q9JJS8 296-685); assay: cell-based or functional assay
Sequence of recombinant rat MASP2 active protease (amino acids 296-685, C-terminal His Tag) (Q9JJS8 other isoform, or with tags, fused parts or gaps limits assumed): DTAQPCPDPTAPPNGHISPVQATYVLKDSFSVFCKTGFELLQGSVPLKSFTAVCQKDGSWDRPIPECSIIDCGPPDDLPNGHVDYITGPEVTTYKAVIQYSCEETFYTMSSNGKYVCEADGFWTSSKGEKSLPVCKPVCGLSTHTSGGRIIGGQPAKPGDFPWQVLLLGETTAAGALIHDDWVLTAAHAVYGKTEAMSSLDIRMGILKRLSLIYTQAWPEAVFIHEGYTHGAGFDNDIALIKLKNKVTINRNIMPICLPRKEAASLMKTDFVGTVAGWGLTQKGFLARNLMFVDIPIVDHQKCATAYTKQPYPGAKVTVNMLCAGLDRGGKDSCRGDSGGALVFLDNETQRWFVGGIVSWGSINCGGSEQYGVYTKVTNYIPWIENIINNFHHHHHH

Binder | rat MASP1 IC50 [1] | rat MASP2 IC50 [2]
AICSRSLPPI[Pen]IPD-NH2 (disulfide 3-11; N-terminus assumed; SMILES CC[C@H](C)[C@H](NC(=O)[C@H](C)N)C(=O)N[C@H]1CSSC(C)(C)[C@@H](C(=O)N[C@H](C(=O)N2CCC[C@H]2C(=O)N[C@@H](CC(=O)O)C(N)=O)[C@@H](C)CC)NC(=O)[C@H]([C@@H](C)CC)NC(=O)[C@@H]2CCCN2C(=O)[C@@H]2CCCN2C(=O)[C@H](CC(C)C)NC(=O)[C@H](CO)NC(=O)[C@H](CCCNC(=N)N)NC(=O)[C@H](CO)NC1=O) [Example 170: AIC+SRSLPPI-(Pen)+IPD-NH2] | 54 nM | 9.82 nM
[Sar]ICSRSLP[Oic]I[Pen]I[5‑Azaspiro(2.4)heptane‑1‑carboxylic acid]-OH (disulfide 3-11) [Example 194: ((N-Me)G)-IC+SRSLP-(Oic)-I-(Pen)+I-((5-Azaspiro[2.4]heptane-1-carboxylic acid)-OH] | 70 nM | 42 nM
[Sar]ICSRS[tBuAla]PPI[Pen]IP-NH2 (disulfide 3-11; N-terminus assumed; SMILES CC[C@H](C)[C@H](NC(=O)CNC)C(=O)N[C@H]1CSSC(C)(C)[C@@H](C(=O)N[C@H](C(=O)N2CCC[C@H]2C(N)=O)[C@@H](C)CC)NC(=O)[C@H]([C@@H](C)CC)NC(=O)[C@@H]2CCCN2C(=O)[C@@H]2CCCN2C(=O)[C@H](CC(C)(C)C)NC(=O)[C@H](CO)NC(=O)[C@H](CCCNC(=N)N)NC(=O)[C@H](CO)NC1=O) [Example 156: ((N-Me)G)-IC+SRS-((tBu)A)-PPI-(Pen)+IP-NH2] | 21 nM | 16 nM
[Sar]ICSRS[tBuAla]PPI[Pen]IP[PEG4]-NH2 (disulfide 3-11; N-terminus assumed; SMILES CC[C@H](C)[C@H](NC(=O)CNC)C(=O)N[C@H]1CSSC(C)(C)[C@@H](C(=O)N[C@H](C(=O)N2CCC[C@H]2C(=O)NCCOCCOCCOCCOCCC(N)=O)[C@@H](C)CC)NC(=O)[C@H]([C@@H](C)CC)NC(=O)[C@@H]2CCCN2C(=O)[C@@H]2CCCN2C(=O)[C@H](CC(C)(C)C)NC(=O)[C@H](CO)NC(=O)[C@H](CCCNC(=N)N)NC(=O)[C@H](CO)NC1=O) [Example 174: ((N-Me)G)-IC+SRS-((tBu)A)-PPI-(Pen)+IP-(PEG3(16atoms))-NH2] | 65.6 nM | 35.1 nM
[Sar]ICSRSLP[Oic]I[Pen]IP[PEG8]-NH2 (disulfide 3-11; N-terminus assumed; SMILES CC[C@H](C)[C@H](NC(=O)CNC)C(=O)N[C@H]1CSSC(C)(C)[C@@H](C(=O)N[C@H](C(=O)N2CCC[C@H]2C(=O)NCCOCCOCCOCCOCCOCCOCCOCCOCCC(N)=O)[C@@H](C)CC)NC(=O)[C@H]([C@@H](C)CC)NC(=O)[C@@H]2C[C@@H]3CCCC[C@@H]3N2C(=O)[C@@H]2CCCN2C(=O)[C@H](CC(C)C)NC(=O)[C@H](CO)NC(=O)[C@H](CCCNC(=N)N)NC(=O)[C@H](CO)NC1=O) [Example 168: ((N-Me)G)-IC+SRSLP-(Oic)-I-(Pen)+IP-(PEG8(28 atoms))-NH2] | 140 nM | 53 nM
[Sar]ICSRSLP[Oic]I[Pen]IP[PEG7]-NH2 (disulfide 3-11; N-terminus assumed; SMILES CC[C@H](C)[C@H](NC(=O)CNC)C(=O)N[C@H]1CSSC(C)(C)[C@@H](C(=O)N[C@H](C(=O)N2CCC[C@H]2C(=O)NCCOCCOCCOCCOCCOCCOCCOCCC(N)=O)[C@@H](C)CC)NC(=O)[C@H]([C@@H](C)CC)NC(=O)[C@@H]2C[C@@H]3CCCC[C@@H]3N2C(=O)[C@@H]2CCCN2C(=O)[C@H](CC(C)C)NC(=O)[C@H](CO)NC(=O)[C@H](CCCNC(=N)N)NC(=O)[C@H](CO)NC1=O) [Example 150: ((N-Me)G)-IC+SRSLP-(Oic)-I-(Pen)+IP-(PEG7(25 atoms))-NH2] | 120 nM | 53 nM
[4Amb]ICSRS[tBuAla]PPI[Pen]IPD-NH2 (disulfide 3-11; N-terminus assumed; SMILES CC[C@H](C)[C@H](NC(=O)c1ccc(CN)cc1)C(=O)N[C@H]1CSSC(C)(C)[C@@H](C(=O)N[C@H](C(=O)N2CCC[C@H]2C(=O)N[C@@H](CC(=O)O)C(N)=O)[C@@H](C)CC)NC(=O)[C@H]([C@@H](C)CC)NC(=O)[C@@H]2CCCN2C(=O)[C@@H]2CCCN2C(=O)[C@H](CC(C)(C)C)NC(=O)[C@H](CO)NC(=O)[C@H](CCCNC(=N)N)NC(=O)[C@H](CO)NC1=O) [Example 187: (4-(Aminomethyl)benzoic acid)-IC+SRS-((tBu)A)-PPI-(Pen)+IPD-NH2] | 77 nM | 3.7 nM

Continued, values first:

rat MASP1 IC50 [1] | rat MASP2 IC50 [2] | Binder
40 nM | 50.3 nM | AICSRSLP[Oic]ICIPD-OH (disulfide 3-11; N-terminus assumed; SMILES CC[C@H](C)[C@H](NC(=O)[C@H](C)N)C(=O)N[C@H]1CSSC[C@@H](C(=O)N[C@H](C(=O)N2CCC[C@H]2C(=O)N[C@@H](CC(=O)O)C(=O)O)[C@@H](C)CC)NC(=O)[C@H]([C@@H](C)CC)NC(=O)[C@@H]2C[C@@H]3CCCC[C@@H]3N2C(=O)[C@@H]2CCCN2C(=O)[C@H](CC(C)C)NC(=O)[C@H](CO)NC(=O)[C@H](CCCNC(=N)N)NC(=O)[C@H](CO)NC1=O) [Example 153: AIC+SRSLP-(Oic)-IC+IPD-OH]
57 nM | 10.9 nM | AICSRSLP[Oic]I[NMeC]IPD-NH2 (disulfide 3-11; N-terminus assumed; SMILES CC[C@H](C)[C@H](NC(=O)[C@H](C)N)C(=O)N[C@H]1CSSC[C@@H](C(=O)N[C@H](C(=O)N2CCC[C@H]2C(=O)N[C@@H](CC(=O)O)C(N)=O)[C@@H](C)CC)N(C)C(=O)[C@H]([C@@H](C)CC)NC(=O)[C@@H]2C[C@@H]3CCCC[C@@H]3N2C(=O)[C@@H]2CCCN2C(=O)[C@H](CC(C)C)NC(=O)[C@H](CO)NC(=O)[C@H](CCCNC(=N)N)NC(=O)[C@H](CO)NC1=O) [Example 185: AIC+SRSLP-(Oic)-I-((N-Me)C)+IPD-NH2]
42 nM | 21 nM | AICSRS[tBuAla]PPI[Pen]IP[Tranexamic]-NH2 (disulfide 3-11) [Example 171: AIC+SRS-((tBu)A)-PPI-(Pen)+IP-(Tranexamic)-NH2]
247 nM | 420 nM | AICSRS[tBuAla]P[Pro(cis-4-CF3)]ICIPD-NH2 (disulfide 3-11; N-terminus assumed; SMILES CC[C@H](C)[C@H](NC(=O)[C@H](C)N)C(=O)N[C@H]1CSSC[C@@H](C(=O)N[C@H](C(=O)N2CCC[C@H]2C(=O)N[C@@H](CC(=O)O)C(N)=O)[C@@H](C)CC)NC(=O)[C@H]([C@@H](C)CC)NC(=O)[C@@H]2C[C@H](C(F)(F)F)CN2C(=O)[C@@H]2CCCN2C(=O)[C@H](CC(C)(C)C)NC(=O)[C@H](CO)NC(=O)[C@H](CCCNC(=N)N)NC(=O)[C@H](CO)NC1=O) [Example 158: AIC+SRS-((tBu)A)-P-((4-CF3)P)-IC+IPD-NH2]
100 nM | 15 nM | [Sar]ICSRS[X13]PPI[Pen]IP-NH2 (disulfide 3-11; N-terminus assumed; SMILES CC[C@H](C)[C@H](NC(=O)CNC)C(=O)N[C@H]1CSSC(C)(C)[C@@H](C(=O)N[C@H](C(=O)N2CCC[C@H]2C(N)=O)[C@@H](C)CC)NC(=O)[C@H]([C@@H](C)CC)NC(=O)[C@@H]2CCCN2C(=O)[C@@H]2CCCN2C(=O)[C@H](CC2(C)CC2)NC(=O)[C@H](CO)NC(=O)[C@H](CCCNC(=N)N)NC(=O)[C@H](CO)NC1=O) [Example 197: ((N-Me)G)-IC+SRS-((2S)-2-amino-3-(1-methylcyclopropyl)propanoic acid)-PPI-(Pen)+IP-NH2]
